From patent US20190309079A1 (Regeneron, published 2019)

T1: extracellular domain of human LEPR (amino acids 22-839 of P48357, Isoform B) with N-terminal myc-myc tag, … (human, UniProt P48357 22-839, GPI anchor at the C-terminus)
T1 construct: also called HEK293/Mycx2-hLepR(Ecto)-GPI anchored cells
T1 sequence: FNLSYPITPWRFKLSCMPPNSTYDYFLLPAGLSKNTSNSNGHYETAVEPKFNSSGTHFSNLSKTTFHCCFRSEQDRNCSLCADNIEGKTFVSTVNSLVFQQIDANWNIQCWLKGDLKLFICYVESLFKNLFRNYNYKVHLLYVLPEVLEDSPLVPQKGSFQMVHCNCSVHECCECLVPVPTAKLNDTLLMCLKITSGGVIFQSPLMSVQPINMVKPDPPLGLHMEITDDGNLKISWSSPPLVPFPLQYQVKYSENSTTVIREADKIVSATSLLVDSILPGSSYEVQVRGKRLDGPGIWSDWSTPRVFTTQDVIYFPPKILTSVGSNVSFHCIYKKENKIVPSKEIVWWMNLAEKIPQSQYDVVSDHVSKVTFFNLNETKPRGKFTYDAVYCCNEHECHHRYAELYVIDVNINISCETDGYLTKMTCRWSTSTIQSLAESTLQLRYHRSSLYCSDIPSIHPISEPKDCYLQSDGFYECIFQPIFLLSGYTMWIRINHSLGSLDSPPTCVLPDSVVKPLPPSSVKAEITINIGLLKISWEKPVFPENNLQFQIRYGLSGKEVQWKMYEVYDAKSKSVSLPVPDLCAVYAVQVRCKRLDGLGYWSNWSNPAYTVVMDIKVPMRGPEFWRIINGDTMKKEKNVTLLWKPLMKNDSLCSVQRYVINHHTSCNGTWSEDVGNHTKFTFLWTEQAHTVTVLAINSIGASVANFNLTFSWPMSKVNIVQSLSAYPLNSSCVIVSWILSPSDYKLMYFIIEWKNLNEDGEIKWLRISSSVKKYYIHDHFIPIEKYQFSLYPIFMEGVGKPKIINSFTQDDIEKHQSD

T2: full length human LEPR (amino acids 1-1165 of P48357, Isoform B) on cells (human, UniProt P48357 22-1165)
T2 sequence: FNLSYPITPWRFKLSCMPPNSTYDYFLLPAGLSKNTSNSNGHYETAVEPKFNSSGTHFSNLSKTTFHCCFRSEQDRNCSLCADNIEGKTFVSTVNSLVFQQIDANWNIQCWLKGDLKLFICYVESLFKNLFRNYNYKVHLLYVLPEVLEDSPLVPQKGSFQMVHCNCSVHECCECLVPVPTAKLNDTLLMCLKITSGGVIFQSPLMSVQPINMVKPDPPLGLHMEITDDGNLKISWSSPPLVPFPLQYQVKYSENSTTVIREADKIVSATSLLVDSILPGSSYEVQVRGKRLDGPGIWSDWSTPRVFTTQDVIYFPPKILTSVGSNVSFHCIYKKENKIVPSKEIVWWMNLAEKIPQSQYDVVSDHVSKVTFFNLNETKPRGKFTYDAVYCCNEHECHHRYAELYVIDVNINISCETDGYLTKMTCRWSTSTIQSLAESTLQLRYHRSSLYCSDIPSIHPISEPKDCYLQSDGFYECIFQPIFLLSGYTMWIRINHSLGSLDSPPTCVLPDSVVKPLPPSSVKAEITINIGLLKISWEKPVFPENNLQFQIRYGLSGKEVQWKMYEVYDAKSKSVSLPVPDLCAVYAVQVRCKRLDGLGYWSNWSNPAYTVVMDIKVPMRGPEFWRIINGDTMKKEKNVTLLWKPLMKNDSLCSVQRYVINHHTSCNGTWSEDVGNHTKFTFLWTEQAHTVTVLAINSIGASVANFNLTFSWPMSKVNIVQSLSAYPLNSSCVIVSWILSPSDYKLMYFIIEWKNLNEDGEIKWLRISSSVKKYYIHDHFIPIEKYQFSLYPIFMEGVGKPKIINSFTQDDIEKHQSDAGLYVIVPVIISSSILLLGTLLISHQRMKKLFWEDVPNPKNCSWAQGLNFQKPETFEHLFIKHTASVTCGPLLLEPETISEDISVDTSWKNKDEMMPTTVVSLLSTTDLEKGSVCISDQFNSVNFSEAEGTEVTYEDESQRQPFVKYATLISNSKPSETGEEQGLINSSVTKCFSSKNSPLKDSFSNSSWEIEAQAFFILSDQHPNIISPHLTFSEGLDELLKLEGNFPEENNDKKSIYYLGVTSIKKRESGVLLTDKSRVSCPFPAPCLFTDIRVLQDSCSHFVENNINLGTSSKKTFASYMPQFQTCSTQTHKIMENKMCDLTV

B1: H4H16650P2 (antibody, V domains shown)
VH: QVQLVESGGGVVQPGKSLRLSCVASGFTFSSDAMYWVRQAPGKGLEWVAVIYYDGNYQYYEDSVKGRFTISRDNSQNTLDLQMNSLRVDDTAVYFCARLNWDYWYLDLWGRGTLVTVSS
VL: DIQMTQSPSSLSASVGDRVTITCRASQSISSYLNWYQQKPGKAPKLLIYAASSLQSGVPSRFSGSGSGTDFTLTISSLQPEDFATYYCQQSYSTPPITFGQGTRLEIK
B2: H4H18449P2 (antibody, human IgG4, V domains shown)
VH: EVQLVESGGGLVQPGGSLRLSCVASGFTFNKYDMHWVRQTTGKGLEWVSGIDTDGDTYYPGSVKGRFTISRENAENSLYLQMNGLRVGDTAVYYCARWPWSGFYGAFDIWGQGTMVTVSS
VL: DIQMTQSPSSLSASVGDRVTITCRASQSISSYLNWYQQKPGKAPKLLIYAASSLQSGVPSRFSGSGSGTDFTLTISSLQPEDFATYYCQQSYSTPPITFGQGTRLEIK
notes: human IgG4 Fc
B3: H4H18417P2 (antibody, V domains shown)
VH: QVQLVESGGGVVQPGRSLRLSCAASGFTFSTYGMHWVRQAPGKGLEWVSVISYDESNKYYADSVKGRFTISRDNSKNALYLQMNSLRNEDTAVYYCARDRPFGLVTGWFDPWGQGTLVTVSS
VL: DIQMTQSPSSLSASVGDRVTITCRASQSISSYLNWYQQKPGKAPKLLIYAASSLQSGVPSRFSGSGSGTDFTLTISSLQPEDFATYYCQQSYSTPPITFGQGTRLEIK
B4: H4H18445P2 (antibody, human IgG4, V domains shown)
VH: QVQLQESGPGLVKPSQTLSLTCTVSGGSISSGGDYWSWIRQLPGKGLEWIGYIYYSGSAYYNPSLKSRGTISIDTSKNQFSLKLTSVTAADTAVYFCVKLRFLEWFLGGWFGPWGQGTLVTVSS
VL: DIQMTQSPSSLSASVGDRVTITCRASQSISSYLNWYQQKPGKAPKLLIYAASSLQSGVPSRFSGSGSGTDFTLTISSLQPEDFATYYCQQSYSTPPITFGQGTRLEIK
notes: human IgG4 Fc
B5: H4H17321P2 (antibody, V domains shown)
VH: QVQLVESGGGVVQPGRSLRLSCEASGFSSSDNAMYWVRQAPGKGLEWVSVIYHDGSYKYYEDSVKGRFTIARDNSKNTLYLQMNSLRAEDTAVYYCARYNWNHWYFDVWGRGTLVTVSS
VL: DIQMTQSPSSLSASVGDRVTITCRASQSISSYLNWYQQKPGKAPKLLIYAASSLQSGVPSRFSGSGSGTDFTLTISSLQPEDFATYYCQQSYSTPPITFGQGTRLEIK
B6: H4H18438P2 (antibody, V domains shown)
VH: QVQLVESGGGVVQPGRSLRLSCAASGFSFNTYGMHWVRQAPGKGLEWVTIIWYDGSIKYYADSVKGRFTISRDNSKNTLYLQMNSLRAEDTAVYYCARGGYSGYLYFDYWGQGTLVTVSS
VL: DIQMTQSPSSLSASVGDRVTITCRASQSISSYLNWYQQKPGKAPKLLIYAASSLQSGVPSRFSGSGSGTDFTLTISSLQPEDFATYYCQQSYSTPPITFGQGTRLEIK
B7: H4H18446P2 (antibody, human IgG4, V domains shown)
VH: EVQLVESGGGLVQPGGSLRLSCAASGFTFSNYGMTWVRQAPGKGLEWVSAITGGGGSTYYSNSVKGRFTISRDNSKNTVYLRMNSVRAEDTAVYYCAKYKWNFVDDWGQGTTVTVSS
VL: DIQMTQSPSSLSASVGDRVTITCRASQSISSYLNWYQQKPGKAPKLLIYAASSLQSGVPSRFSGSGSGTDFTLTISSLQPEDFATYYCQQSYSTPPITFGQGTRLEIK
notes: human IgG4 Fc
B8: H4H17319P2 (antibody, V domains shown)
VH: QVQLVESGGSVVQPGRSLRLSCAASGFTFSTYAMYWVRQTPGKGLEWVAVLYSDGSNKYYIDSVKGRFTISRDTSTNTLYLQMSSLRADDSALYYCARLNWDYWYFDLWGRGTLVTVSS
VL: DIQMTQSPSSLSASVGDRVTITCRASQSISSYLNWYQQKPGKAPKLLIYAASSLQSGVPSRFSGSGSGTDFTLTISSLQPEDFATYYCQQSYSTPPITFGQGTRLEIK
notes: also called REGN4461

Experiments:
[1] = target: T1, extracellular domain of human LEPR …; test: FACS, 10 nM Ab, HEK293/hLEPR-GPI, no added Leptin
Method: (§1) For the FACS analysis, HEK293 parental cells and HEK293/hLEPR-GPI cells were dissociated and plated onto 96-well v-bottom plates at 5×10⁵ cells/well in PBS containing 2% FBS (FACS buffer). […] Cells were subsequently fixed using BD CytoFix™ (Becton Dickinson, #554655), filtered, and analyzed on a HyperCyt Flow Cytometer (Beckman Coulter). Unstained and secondary antibody alone controls were also tested for all cell lines. The results were analyzed using ForeCyt (IntelliCyt) and FlowJo version 10 software to determine the geometric means of fluorescence for viable cells. The geometric mean of fluorescence for each sample was then normalized to the geometric mean of unstained cells to obtain relative binding per condition referred to as “binding ratios”, and these binding ratios were recorded for each antibody tested.

[2] = target: T2, full length human LEPR (amino acids …); test: cell-based or functional assay
[3] = target: T1, extracellular domain of human LEPR …; test: FACS, 10 nM Ab, HEK293/hLEPR-GPI, 1 uM Leptin
Method: as §1

[4] = target: rat LEPR extracellular domain expressed with a C-terminal myc-myc-hexahistidine tag (rLEPR.mmh) (rat, UniProt Q62959 22-839); test: SPR, captured mAb, 25C and 37C
Method: Equilibrium dissociation constants (KD values) for LEPR binding to purified anti-LEPR monoclonal antibodies were determined using a real-time surface plasmon resonance biosensor using a Biacore 4000 instrument. All binding studies were performed in 10 mM HEPES, 150 mM NaCl, 3 mM EDTA, and 0.05% v/v Surfactant Tween-20, pH 7.4 (HBS-ET) running buffer at 25° C. and 37° C. The Biacore sensor surface was first derivatized by amine coupling with a monoclonal mouse anti-human Fc antibody (GE, # BR-1008-39) to capture anti-LEPR monoclonal antibodies. […] Kinetic association (kₐ) and dissociation (kd) rate constants were determined by fitting the real-time binding sensorgrams to a 1:1 binding model with mass transport limitation using Scrubber 2.0c curve-fitting software. Binding dissociation equilibrium constants (KD) and dissociative half-lives (t½) were calculated from the kinetic rate constants as: […]

Chain of rat LEPR extracellular domain expressed with a C-terminal myc-myc-hexahistidine tag (rLEPR.mmh) (Q62959 other isoform, or with tags, fused parts or gaps): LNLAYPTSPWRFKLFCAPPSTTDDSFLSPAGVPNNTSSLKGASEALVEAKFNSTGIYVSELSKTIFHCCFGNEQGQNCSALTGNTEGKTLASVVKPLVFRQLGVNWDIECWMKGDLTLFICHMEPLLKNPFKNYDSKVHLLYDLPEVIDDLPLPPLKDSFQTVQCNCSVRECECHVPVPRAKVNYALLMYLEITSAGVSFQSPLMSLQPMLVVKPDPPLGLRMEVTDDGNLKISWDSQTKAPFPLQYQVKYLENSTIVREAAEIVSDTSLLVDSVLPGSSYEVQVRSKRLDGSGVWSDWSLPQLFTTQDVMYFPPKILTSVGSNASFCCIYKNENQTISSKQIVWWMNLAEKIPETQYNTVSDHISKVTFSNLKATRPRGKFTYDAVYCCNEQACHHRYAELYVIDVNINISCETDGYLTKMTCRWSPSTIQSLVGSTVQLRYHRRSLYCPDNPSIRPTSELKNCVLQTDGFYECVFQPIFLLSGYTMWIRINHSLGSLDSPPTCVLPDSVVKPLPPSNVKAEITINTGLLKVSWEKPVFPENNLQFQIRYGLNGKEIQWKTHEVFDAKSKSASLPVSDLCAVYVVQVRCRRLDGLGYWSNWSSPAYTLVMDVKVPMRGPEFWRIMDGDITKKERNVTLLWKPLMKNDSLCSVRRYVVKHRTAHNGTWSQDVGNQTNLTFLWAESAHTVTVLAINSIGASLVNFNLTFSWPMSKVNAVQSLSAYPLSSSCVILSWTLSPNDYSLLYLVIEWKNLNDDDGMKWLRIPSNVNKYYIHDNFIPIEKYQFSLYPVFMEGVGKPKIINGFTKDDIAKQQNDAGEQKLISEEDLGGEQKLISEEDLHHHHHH

Row | Binder | Binding Ratio (normalized to unstained) [1] [fold] | % activation; IMR-32/LEPR with 200 pM human Leptin [2] [%] | % activation; IMR-32/LEPR without human Leptin [2] [%] | EC50 (M); IMR-32/LEPR with 200 pM human Leptin [2] [M] | EC50 (M); IMR-32/LEPR without human Leptin (STAT3-Luc reporter) [2] [M] | Binding Ratio (normalized to unstained) [3] [fold] | binding result [4]
1 | B1 | 2420 | 88 | 68 | 5.19e-11 | 6.19e-11 | 3120 | no binding (tested: 100 nM)
2 | B2 | 3370 | 66 | 13 | 5.23e-11 | 2.12e-10 | 3110 | no binding (tested: 100 nM)
3 | B3 | 1840 | 87 | 5 | 5.23e-10 | 1.53e-10 | 2600 | no binding (tested: 100 nM)
4 | B4 | 2020 | 97 | 5 | 4.1e-10 | 1.19e-08 | 2490 | no binding (tested: 100 nM)
5 | B5 | – | 76 | 66 | 2.57e-10 | 2.07e-10 | – | no binding (tested: 100 nM)
6 | B6 | 1490 | 76 | 5 | 2.02e-11 | 1.49e-09 | 2410 | no binding (tested: 100 nM)
7 | B7 | – | 68 | 6 | 3.42e-11 | 3.73e-10 | – | no binding (tested: 100 nM)
8 | B8 | – | 76 | 68 | 1.91e-10 | 1.87e-10 | – | no binding (tested: 100 nM)
